Measured values taken from paper PMC1540706.

Experiments:
[1] = target: human β2-appendage (700–937) used for ITC (human) (UniProt P63010); test: ITC; VP-ITC; 100 mM HEPES, 50 mM NaCl, 2 mM DTT pH 7.4 at 10 °C; peptides or proteins injected from the syringe into the cell
epsinR peptide = test: ITC; conditions: stoichiometry (1.3)

Chain of human β2-appendage (700–937) used for ITC (human) (P63010 700-937): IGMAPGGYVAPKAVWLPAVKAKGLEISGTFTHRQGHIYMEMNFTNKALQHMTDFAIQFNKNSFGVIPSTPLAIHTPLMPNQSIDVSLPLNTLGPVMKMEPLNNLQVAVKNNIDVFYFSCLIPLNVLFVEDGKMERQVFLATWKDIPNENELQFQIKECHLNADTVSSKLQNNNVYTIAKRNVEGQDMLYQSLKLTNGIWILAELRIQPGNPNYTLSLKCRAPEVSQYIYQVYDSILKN
Chain of human β2-appendage (700–937) used for ITC (P63010 whole entry Y888V, looked up, tested part not stated): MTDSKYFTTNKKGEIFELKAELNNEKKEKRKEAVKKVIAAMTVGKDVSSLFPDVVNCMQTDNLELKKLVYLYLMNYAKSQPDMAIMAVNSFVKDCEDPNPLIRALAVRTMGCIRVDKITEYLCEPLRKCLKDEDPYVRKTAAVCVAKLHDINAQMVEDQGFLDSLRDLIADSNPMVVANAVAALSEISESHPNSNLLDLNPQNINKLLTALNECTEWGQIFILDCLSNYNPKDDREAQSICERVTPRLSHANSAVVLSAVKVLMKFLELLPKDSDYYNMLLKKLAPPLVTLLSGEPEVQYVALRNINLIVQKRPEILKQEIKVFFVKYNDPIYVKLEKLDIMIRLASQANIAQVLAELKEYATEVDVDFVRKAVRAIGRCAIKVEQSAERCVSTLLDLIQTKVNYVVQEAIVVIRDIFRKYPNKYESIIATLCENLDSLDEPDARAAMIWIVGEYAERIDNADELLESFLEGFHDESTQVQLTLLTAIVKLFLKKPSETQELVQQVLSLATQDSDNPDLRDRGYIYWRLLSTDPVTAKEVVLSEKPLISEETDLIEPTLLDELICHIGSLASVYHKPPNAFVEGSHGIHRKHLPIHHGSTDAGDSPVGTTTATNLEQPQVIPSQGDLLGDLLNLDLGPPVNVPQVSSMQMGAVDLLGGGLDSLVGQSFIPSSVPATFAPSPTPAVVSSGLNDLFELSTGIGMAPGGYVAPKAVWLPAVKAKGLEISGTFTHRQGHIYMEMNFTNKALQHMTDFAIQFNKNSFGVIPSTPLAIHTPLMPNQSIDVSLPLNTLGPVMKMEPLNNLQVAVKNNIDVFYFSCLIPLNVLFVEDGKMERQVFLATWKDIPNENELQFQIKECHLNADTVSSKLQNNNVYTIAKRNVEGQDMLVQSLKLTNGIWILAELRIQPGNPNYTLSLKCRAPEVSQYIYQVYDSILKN

Substance | Kd [1] | Kd (epsinR peptide)
epsinR peptide | 80 µM | 
human β2-appendage (700–937) used for ITC (from UniProt P63010) Y888V |  | 77 µM
